According to the nanobody polyreactivity screen of Harvey et al. (2022):

Test: yeast display, Sf9 membrane polyspecificity reagent, FACS + sequencing; frameworks hold sequencing errors
How it was run: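 Galactose induction of a Saccharomyces cerevisiae BJ5465 synthetic nanobody display library ran 36–48 hours. The cells were then stained for 1 hour at 4 °C with 10% biotinylated, detergent-solubilized Sf9 membrane reagent, pulled down on streptavidin microbeads and FACS-sorted into low and high (top ~1%) gates on expression and reagent-binding fluorescence. Labels for polyreactivity follow the gate of origin.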

Sequence	polyreactivity (PSR sort gate)
QVQLVESGGGLVQAGGSLRLSCAASGYIFSYYTMGLYRQAPGKERELVASNRWGGGRTYYADSVKGRFTISRDNAKNTVYLQMNSLKPEDTAVYYCNVKSSRLLDVGRMEYWGQGTQVTVSS	high polyreactivity
QVQLVESGGGLVQAGGSLRLSCAASGYIFSYYTMGWYRQAPGKERELVAAISYSGGSTDYADSVKGRFTISRDNAKNTVYLQMNSLKPEDTAVYYCNADYSFWAKPYWEYGYDYWGQGTQVTVSS	low polyreactivity
QVQLVESGGGLVQAGGSLRLSCAASGYIFVIYAMGWYRQAPGKERELVAAISWGGGSTYYADSVKGRFTISRDNAKNTVYLQMNSLKPEATAVYYCAARGWVVGRISVPGEYWGQGTQVTVSS	high polyreactivity
QVQLVESGGGLVQAGGSLRLSCAASGYIFVPYALGWYRQAPGKERELVASITGGGSTNYADSVKGRFTISRDNAKNTVYLQMNSLKPEDTAVYYCAAVLGGGEKGGRNRRFDSWGQGTQVTVSS	low polyreactivity
QVQLVESGGGLVQAGGSLRLSCAASGYIFVSYDMGWYRQAPGKERELVAAISWRGGSTYYADSVKGRFTISRDNAMNTVYLQMNSLKPEDTAVYYCAVDDWLDWLFADFGYWGQGTQVTVSS	low polyreactivity
QVQLVESGGGLVQAGGSLRLSCAASGYIFVYNSMGWYRPAPGKERELVAVINYSGSSTYYADSVKGRFPISRDNAKNTVYLQMNSLKPEDTAVYYCNALRRESLEDEYWGQGTQVTVSS	high polyreactivity
QVQLVESGGGLVQAGGSLRLSCAASGYIFWENAMGWYRQAPGKERELVAAITVSGGGTYYADSVKGRFTISRDNAKNTVYLQMNSLKPEDTAVYYCAADEDNPWLWFYYWGQGTQVTVSS	low polyreactivity
QVQLVESGGGLVQAGGSLRLSCAASGYIFWSNTMGWYRQAPGKERELVAAISQSTASTYYADSVKGRFTISRDNAKNTVYLQMNSLKPEDTAVYYCAADDYIDGDDYWGQGTQVTVSS	low polyreactivity
QVQLVESGGGLVQAGGSLRLSCAASGYIFYAYAMAWYRHAPGKESELVAAITDNGVSTFYADSVKGRFTISRDNAKNTVYLHMNSLIPEDTAVYYCATSSTHSRGDEYWGQGTQVAVSS	low polyreactivity
QVQLVESGGGLVQAGGSLRLSCAASGYIFYDNAMGWYRQAPGKERELVAAISRSGSRTRYADSVKGRFTISRDNAKNTVYLQMNSLKPEDTAVYYCNTRYAKYYYWGQGTQVTVSS	high polyreactivity
QVQLVESGGGLVQAGGSLRLSCAASGYIFYFNAMGRYRQAPGKERELVAVISDRDDSTYYADSVKGRFTISRDNAKNTVYLQMNSLKPEDTAVYYCAADGDTYVDDPYDYWGQGTQVTVSS	low polyreactivity
QVQLVESGGGLVQAGGSLRLSCAASGYIFYFYAMGWYRQAPGKERELVAAISSSGGSTRYADSVKGRFTISRDNAKNTVYLQMNSLKPEDTAVYYCAASHWSGAAWYYYWGQGTQVTVSS	high polyreactivity
QVQLVESGGGLVQAGGSLRLSCAASGYIFYGYAMGWYRQAPWKESEWVAAITVRGGSTYYADSVKGRFTISRDKAKNTVYLQKNSQKPEDTAVYYCAAAPQFTFGVGYWGQVTQVTVSS	low polyreactivity
QVQLVESGGGLVQAGGSLRLSCAASGYIFYRNAMGWYRQAPGKEREFVAAISSSGVSTYYADSVKGRFTISRDTAKNTVYLQMNSLKPEDTAVYYCNTGYIFSSFYSSKYGYWGQGTQVTVSS	low polyreactivity
QVQLVESGGGLVQAGGSLRLSCAASGYIFYTYAMGWYRQAPGKERELVASIDSGGSTNYADSVKGRFTISRDNAKNTVYLQMNSLKPEDTAVYYCAADVIVRVYYYYYVLMDYWGQGTQVTVSS	low polyreactivity
QVQLVESGGGLVQAGGSLRLSCAASGYIIARNAMGWYRQAPGKERELVAAIRSSGGSTYYADSVKGRFTISRDNAKNTVYLQMNSLKPEDTAVYYCAARILKRPKLYDYWGQGTQVTVSS	high polyreactivity

Sequence	polyreactivity (PSR sort gate)
QVQLVESGGGLVQAGGSLRLSCAASGYIIRRYSMVWYIQAPGKESEWVAVISSRGGSTYYADSVKGRFTISRDYAKNTVYLQMNSLKPEDTPVYYCAARSGSRATVLSDYWGQGTQVTVSS	high polyreactivity
QVQLVESGGGLVQAGGSLRLSCAASGYILDVYAMGWYRQAHGKEWELVAVITWRTDSTYYADSVKGRFTISRDNAKNTVYLQMNSLKPEDTAVYYCAKVLRLSKYRYYYWGQGTQVTVSS	high polyreactivity
QVQLVESGGGLVQAGGSLRLSCAASGYILGRYAMGWYRQAPGKERELVAAITSGGSTYYADSVKGRFTISRDNAKNTVYLQMNSLKPEDTAVYYCNAFFATGVDYWGQGTQVTVSS	high polyreactivity
QVQLVESGGGLVQAGGSLRLSCAASGYILQINAMGWYRQAPGKERELVSAISISGGNTYYADSVKGRFTISRDNAKNNVYLQMNSLKPEDTAVYYCAAYRYYSYLVRYGLLLAYYYWGQGTQVTVSS	low polyreactivity
QVQLVESGGGLVQAGGSLRLSCAASGYILTHYAMGWYRQAPGKERELVAAITRVGNTNYADSVKGRFTISRDNAKNTVYLQMNSLKPEDTAVYYCAVTYNGDSSWPGDYWGQGTQVTVSS	low polyreactivity
QVQLVESGGGLVQAGGSLRLSCAASGYISFGYAMGWYRQAPGKEREFVAAISVGGGTTYYADSVKGRFTISRDNAKNTVYLQMNSLKPEDTAVYYCAARSYSYAPRRGYWGQGTQVTVSS	high polyreactivity
QVQLVESGGGLVQAGGSLRLSCAASGYMFGGYAMGWYRQAPGKAREFVAAISDISGSTYYADSVKGRFTISRDNAKNTVYLQMNSLKPEDTAVYYGGHTSTADEDYWGQGTQVTVSS	low polyreactivity
QVQLVESGGGLVQAGGSLRLSCAASGYMGWYRQAPGKERELVATISGSGGSPYYADSVKGRFSISRDNAKNTVYLQMNSLKPEDTARYYCTTEIWGVNRSGYDYWGQGTQVTVSS	low polyreactivity
QVQLVESGGGLVQAGGSLRLSCAASGYNFDGYAMGWYRQAPGKERELVAAINSGGGTYYADSVKGRFTISRDNAKNTVYLQMNSLKPEDTAVYYCSKYTYDYWGQGTQVTVSS	low polyreactivity
QVQLVESGGGLVQAGGSLRLSCAASGYNFGVYAMGWYRQAPGKERELVAAINGGDSTYYADSVKGRFTISRDNAKNTVYLQMNSLKPEDTAVYYCAADPYSVYGGDYWGQGTQVTVSS	low polyreactivity
QVQLVESGGGLVQAGGSLRLSCAASGYNFYVNGMGWYRQAAGTERELVARITLSGTSTYYADSVKGRITISRDYAKNTVYLQMNSLKPDDTAVYYCAAPYFTYGLDVDVYWGQGTQVTVSS	low polyreactivity
QVQLVESGGGLVQAGGSLRLSCAASGYRFERNAMGWYIQAPGKERELVAAITDDGDDTYYADSVKGRFTISRDNAKNTVYLQINSLKPEDYAVYYWAKDLYYGDYYYWGQGTQVTVSS	low polyreactivity
QVQLVESGGGLVQAGGSLRLSCAASGYTFARNAMGWYIQAPGKERELVAAISSSGGRTYYADSVKGRFTISRDNAKNTVYLQMNSLKPEDTAVYYCNTGYYRTGSYDYWGQGTQVTVSS	high polyreactivity
QVQLVESGGGLVQAGGSLRLSCAASGYTFAYYTMGWYRQAPGKERELVAAINRSGGSTNYADSVKGRFTISRDNAKNTVYLQMNSLKPEDTAVYYCAADYFFRRGPGAVFIGRYGYWGQGTQVTVSS	high polyreactivity
QVQLVESGGGLVQAGGSLRLSCAASGYTFDGYPRGWYRQAPGKERELVAVITKSGGRTYYADSVKGRFTNSRDNAKNTVYLQMNSLKPEDTAVYYCAADDSGTKDIVEGEYWGQGTQVTVSS	high polyreactivity
QVQLVESGGGLVQAGGSLRLSCAASGYTFEDNAMGWYRQAPGKERELVAAIDWSGDSTYYADSVKGRFTISRDNAKNTVYLQMNSLKPEDTAVYYCSADYTTWTDMDYWGQGTQVTVSS	low polyreactivity
